How the values were obtained:
[1] = target: 2F8-HG-L236V; assay: non-covalent nano-ESI MS, 0.01-10 uM; self-dimerisation (FIG. 6)
[2] = target: purified EGFr (Sigma) (UniProt P00533); assay: ELISA on coated purified EGFr (50 ng/well), without and with polyclonal human IgG (IVIG), both curves in the same bundle
[3] = target: EGFr in A431 cells (UniProt P00533)
[4] = target: 2F8-HG-Y275A; assay: non-covalent nano-ESI MS, 0.01-10 uM; self-dimerisation (FIG. 6)
[5] = target: 2F8-HG-F273A; assay: as above

Molecule | EC50 (read off the curve) [2] [µg/mL] | also measured
2F8-HG-L236V (antibody) |  | percent monomeric at low concentrations [1]: 100%
2F8-HG-R277A (antibody) | 0.08 | IC50 (read off the curve) [3]: 3 nM
2F8-HG-Y275A (antibody) |  | percent monomeric at low concentrations [4]: 100%
2F8-HG-R277K (antibody) | 0.08 | 

Second part, led by results:

EC50 (read off the curve) [2] [µg/mL] | Molecule | also measured
0.08 | 2F8-HG-F273L (antibody, part only; not given: anti-EGFr VH and light chain, part only) heavy, part: ASTKGPSVFPLAPCSRSTSESTAALGCLVKDYFPEPVTVSWNSGALTSGVHTFPAVLQSSGLYSLSSVVTVPSSSLGTKTYTCNVDHKPSNTKVDKRVAPEFLGGPSVFLFPPKPKDTLMISRTPEVTCVVVDVSQEDPEVQFNWYVDGVEVHNAKTKPREEQFNSTYRVVSVLTVLHQDWLNGKEYKCKVSNKGLPSSIEKTISKAKGQPREPQVYTLPPSQEEMTKNQVSLTCLVKGFYPSDIAVEWESNGQPENNYKTTPPVLDSDGSFLLYSRLTVDKSRWQEGNVFSCSVMHEALHNHYTQKSLSLSLGK | 
0.08 | 2F8-HG-F273A (antibody, part only; not given: anti-EGFr VH and light chain, part only) heavy, part: ASTKGPSVFPLAPCSRSTSESTAALGCLVKDYFPEPVTVSWNSGALTSGVHTFPAVLQSSGLYSLSSVVTVPSSSLGTKTYTCNVDHKPSNTKVDKRVAPEFLGGPSVFLFPPKPKDTLMISRTPEVTCVVVDVSQEDPEVQFNWYVDGVEVHNAKTKPREEQFNSTYRVVSVLTVLHQDWLNGKEYKCKVSNKGLPSSIEKTISKAKGQPREPQVYTLPPSQEEMTKNQVSLTCLVKGFYPSDIAVEWESNGQPENNYKTTPPVLDSDGSFALYSRLTVDKSRWQEGNVFSCSVMHEALHNHYTQKSLSLSLGK | percent monomeric at low concentrations [5]: 100%

Source: US20210155699A1
